Measurements published in publication PMC2230540 (The Journal of General Physiology, 1999).

Target: the molecule itself
Test: cross-linking

B1: EriC, Escherichia coli ClC-type Cl- channel homologue, product of the yadQ gene (natural protein, UniProt P37019 1-473, looked up)
chain: MKTDTPSLETPQAARLRRRQLIRQLLERDKTPLAILFMAAVVGTLVGLAAVAFDKGVAWLQNQRMGALVHTADNYPLLLTVAFLCSAVLAMFGYFLVRKYAPEAGGSGIPEIEGALEDQRPVRWWRVLPVKFFGGLGTLGGGMVLGREGPTVQIGGNIGRMVLDIFRLKGDEARHTLLATGAAAGLAAAFNAPLAGILFIIEEMRPQFRYTLISIKAVFIGVIMSTIMYRIFNHEVALIDVGKLSDAPLNTLWLYLILGIIFGIFGPIFNKWVLGMQDLLHRVHGGNITKWVLMGGAIGGLCGLLGFVAPATSGGGFNLIPIATAGNFSMGMLVFIFVARVITTLLCFSSGAPGGIFAPMLALGTVLGTAFGMVAVELFPQYHLEAGTFAIAGMGALLAASIRAPLTGIILVLEMTDNYQLILPMIITGLGATLLAQFTGGKPLYSAILARTLAKQEAEQLARSKAASASENT
- stoichiometry N: 2
